Data on one molecule can be found in US20240360208A1 (Hoffmann-La Roche, published 2024).

A value given as a limit tells only on which side of the number the result lay.

Assay [1] concerns the target T1, human CCL2 (MCP1) - wild type (wt) (human, UniProt P13500 24-99).
T1 construct: Made in-house or bought (R&D Systems 279-MC), depending on the assay; can form dimers; also called wt human CCL2; WT human CCL2
The assay can be described thus: SPR T200, 25 C, anti-human Fc capture, 1:1 model, pH 8.3. On the procedure:
(§1) An antibody capture system was established. 13000 MAb<h-Fc-pan>M-R10Z8E9-IgG (Roche) were immobilized at 25° C. at 18 μg/ml in 10 mM sodium acetate buffer pH 5.0, by EDC/NHS coupling as described by the manufacturer. The capture system was regenerated by an injection at 20 μl/min with HBS buffer (100 mM HEPES pH 7.4, 1.5 M NaCl, 0.05% (w/v) Tween 20), followed by a 1 min 15 see injection with 10 mM NaOH and two 10 mM glycine buffer pH 2.5 injections for 1 min. Antibodies were captured were injected for 30 see at 10 μl/min at 80 nM concentration diluted in the respective system buffer. […] The analyte contact time was 3 min and the dissociation time was 10 min. Analyte kinetics were performed at 50 μl/min.
(§2) The Biaevaluation software V.3.0 was used according to the instructions of the manufacturer GEHC. A 1:1 binding model with RMAX local was applied to determine kinetic rates.

The target of assay [2] is T2, human CCL7 (MCP3) - wild type (wt) (human, UniProt P80098 24-99).
T2 construct: Bought from R&D Systems for the homolog assay
The assay can be described thus: SPR (Biacore T200), 25 °C, ACES pH 7.4; antibody captured on anti-human IgG (Fc), chemokine injected at 5 nM and 20 nM. On the procedure: (§3) Biacore assay method: The binding of anti-CCL2 antibodies to the CCL homologs e.g. CCL2 (MCP-1), CCL8 (MCP-2), CCL7 (MCP-3), and CCL13 (MCP-4) were assessed at 25° C. using Biacore T200 instrument (GE Healthcare). Mouse anti-human IgG (Fc) (GE Healthcare) was immobilized on each flow cells of a CM4 sensor chip using amine coupling kit (GE Healthcare) according to the recommended settings by the manufacturer. Antibodies and analytes were diluted into ACES pH 7.4 buffer (20 mM ACES, 150 mM NaCl, 1 mg/ml BSA, 0.05% Tween 20, 0.005% NaN3). Antibodies were captured onto the anti-Fc sensor surfaces, then recombinant human CCL homologs proteins was injected over the flow cell at 5 nM and 20 nM. […] Sensor surface was regenerated each cycle with 3M MgCl2. Binding sensorgram was processed using Biacore T200 Evaluation software, version 2.0 (GE Healthcare).

The target of assay [3] is T3, human CCL8 (MCP2) - wild type (wt) (human, UniProt P80075 24-99).
T3 construct: also called huCCL8
T3 sequence: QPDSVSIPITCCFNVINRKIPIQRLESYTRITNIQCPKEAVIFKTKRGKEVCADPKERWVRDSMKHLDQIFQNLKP
Described as above. As for the experimental part: as §3

The target of assay [4] is T1, human CCL2 (MCP1) - wild type (wt). The assay can be described thus: SPR T200, 25 C, anti-human Fc capture, 1:1 model, pH 5.5. As for the experimental part: as §1, §2
The target is the same in assay [5]. The assay can be described thus: SPR T200, 37 C, antibody captured, 1:1 model. On the procedure:
(§4) Antibody clone supernatants were diluted 1:2 in system buffer and were captured for 1 min at 5 μl/min. […] Analyte kinetics were performed at 30 μl/min. As analyte in solution wt human CCL2 or monomeric CCL2 P8A variant CCL2 were used. Analytes were injected at 90 nM highest concentration. The analyte contact time was 3 min and the dissociation time was 10 min. The Biaevaluation software V.3.0 was used according to the instructions of the manufacturer GEHC. A 1:1 binding model with RMAX local was applied to apparently estimate kinetic rates.

For assay [6], the target named is T4, human CCL2 (MCP1) - P8A variant (human, UniProt P13500 24-99).
T4 construct: In-house point mutant that cannot dimerise; also called monomeric human CCL2; monomeric CCL2
As to the kind of experiment: SPR T200, 37 C, antibody captured, 1:1 model. On the procedure:
as §4

In assay [7] the target is T1, human CCL2 (MCP1) - wild type (wt). The assay can be described thus: SPR T200, 25 C, anti-human Fc capture, 1:1 model, pH 7.4. On the procedure:
as §1, §2

For assay [8] the target is unchanged. The assay can be described thus: cell-based or functional assay.
Assay [9] shares this target. As to the kind of experiment: SPR T200, 25 C, anti-human Fc capture, 1:1 model, pH 6.3.
Assay [10] shares this target. The assay can be described thus: SPR T200, 25 C, anti-human Fc capture, 1:1 model, pH 6.7.
For assay [11] the target is unchanged. As to the kind of experiment: SPR T200, 25 C, anti-human Fc capture, 1:1 model, pH 7.1. As for the experimental part:
as §1, §2

For assay [12] the target is unchanged. The assay can be described thus: SPR T200, 25 C, anti-human Fc capture, 1:1 model, pH 7.9. On the procedure:
as §1, §2

Assay [13] shares this target. The assay can be described thus: SPR T200, 25 C, anti-human Fc capture, 1:1 model, pH 8.3; pH 8.3.
Assay [14] shares this target. The assay can be described thus: SPR T200, 25 C, anti-human Fc capture, 1:1 model, pH 5.9. As for the experimental part:
as §1, §2

Assay [15] has the same target. The assay can be described thus: cell-based or functional assay. The source holds these as a separate data set.

B1: Humanized 11K2 (=11K2) (antibody, IgG1, V domains shown)
VH: QVQLVQSGAEVKKPGSSVKVSCKASGLTISDTYMHWVRQAPGQGLEWMGRIDPANGNTKFDPKFQGRVTITADTSTSTAYMELSSLRSEDTAVYYCARGVFGFFDYWGQGTTVTVSS
VL: DIQMTQSPSSLSASVGDRVTITCKATEDIYNRLAWYQQKPGKAPKLLISGATSLETGVPSRFSGSGSGTDYTLTISSLQPEDFATYYCQQFWSAPYTFGGGTKVEIK
notes: IgG1 with kappa light chain; also called CCL2-0002; humanized 11k2 IgG1
In general, Kd refers to the free concentration of one partner at which half of the binding sites on the other are occupied at equilibrium, for simple one-to-one binding. Lower therefore signals higher affinity. Turning to B1, the “t 1/2-diss.” value in assay [1] is 19.2 h; in [4], 1.97 h; in assay [7] it was 2.72 h; in assay [9], 19.2 h; in assay [10] it was 4.87 h; in [11], 3.58 h. The “t 1/2-diss.” value in [12] was 2.75 h; in assay [14], 4.78 h. Further, the values for the binding result in [2] and in [3] were “no binding (tested: 20 nM)” and “binds”, respectively. Besides, the Kd is 0.01 nM in assay [4]; 0.028 nM in assay [5]; 0.035 nM in assay [6]; 0.02 nM in assay [7]; 0.003 nM in [9]; 0.01 nM in assay [10]. Further, the dissociation constant (Kd) in assay [11] was 0.01 nM; in assay [12], 0.02 nM; in assay [13] it was no more than 0.003 nM; in [14], 0.01 nM. For the same molecule, the “T1/2” value in assay [5] amounted to 1.97 h; in assay [6], 1.93 h. In assay [8], the “IC50, inhibition of THP-1 migration (chemotaxis assay)” value turned out to be 0.7 µg/mL. Further, the “THP1 chemotaxis [fold change compared to IgG control]” value in assay [15] amounted to 7.2 fold.
